experiment: yeast display, Sf9 membrane polyspecificity reagent, FACS + sequencing; frameworks hold sequencing errors
Method in brief: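 Galactose induction of a Saccharomyces cerevisiae BJ5465 synthetic nanobody display library ran 36–48 hours. The cells were then stained for 1 hour at 4 °C with 10% biotinylated, detergent-solubilized Sf9 membrane reagent, pulled down on streptavidin microbeads and FACS-sorted into low and high (top ~1%) gates on expression and reagent-binding fluorescence. Labels for polyreactivity follow the gate of origin.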

Sequence | polyreactivity (PSR sort gate)
QVQLVESGGGLVQAGGSLRLSCAASGFTFVPHTMGWYRQAPGKERELVAGINYGVGSTYYADSVKGRFTISRDNAMNTVYLQMNSLKPEDTAVYYCAADIVYLYGLLYYWGQGTQVTVSS | low polyreactivity
QVQLVESGGGLVQAGGSLRLSCAASGSIFRTYTMGWYRQAPGKEREFVAAISRSGGSTYYADSVKGRFTISRDNAKNTVYLQMNSLKPEDTAVYYCNARWGLGSYGYWGQGTQVTVTS | high polyreactivity
QVQLVESGGGLVQAGGSLRLSCAASGRTVRVYAMGWYRQAPGKERELVAAINGGGSTNYADSVKGRFTISRDSAKNTVYLQMNSLKPEDTAVYYCNATGRRSKRIYDYWGQGTQVTVSS | high polyreactivity
QVQLVESGGGLVQAGGTLRISCAASGRTFRKYAMGWYRQAPGKERELVAAISWSGGSTYYANSVKGRFTISRDNAKNTVYLQMNSLKPEDTAVYYCAAVPVHTGSLYWGFTTGYDYWGQGTQVTVSS | low polyreactivity
QVQLVESGGGLVQAGGSLRLSCAASGRTFISNAMGWYRQAPGKERELVADINGGGSTYYADSVKGRFTISRDNAKNTVYLQINSLKPEDTAVYYCAADVWTLDPDEYDYWGQGTQVTVSS | low polyreactivity
QVQLVESGGGLVQAGGSLRLSCAASGFICFDYDMGWYRQAPGKERELVAAINWTGGSTDYADSVKGRFTISRDNAKNTVYLQMNSLKPEDTAVYYCAAEGQDGRFYWGQGTQVTVSS | low polyreactivity
QVQLVESGGGLVQAGGSLRLSCAASGLILYYYTMGWYRQAPGKERELVAAINSGGNTYYADSVKGRFTISRDNAKNTVYLQMNSLKPEDTAVYYCNAYRVRYKRSYDYWGQGTQVTVSS | high polyreactivity
QVQLVESGGGLVQAGGSLRLSCAASGSIFVANAMGWYRQAPGKERELVAVISSGGGSTSYADSVKGRFTISRDNAKNTVYLQMSSLKPEDTAVYDCTRRRYDAGSTMGYWGQGTQVTVSS | low polyreactivity
QVQLVESGGGLVQAGGSLRLSCAASGLTFTTYTMGWYRQAPGKERELVAAISSRGGSTYYADSVKGRFTISRDNAKNTVYLQMNRLKPEDTAVYYCNAPRPHRMDWGQGTQVTVSS | high polyreactivity
QVQLVESGGGLVQAGGSLRLSCAASGSTFNDNAMGWYRQAPGKERELVAGISYSGGSTYYADSVKGRFTISRDNAKNTVYLQMNSLKPEDTAVYYCNADVTGLSQFGYWGQGTQVTVSS | low polyreactivity
QVQLVESGGGLVQAGGSLRLSCAASGSTFVTNGMGWYRQAPGKERELVAAISGNVGSTYYADSVKGRFTISRDNAKNTVYLQMNSLKPEDTAVYYCAARQYRPSDYDYWGQGTQVTVSS | low polyreactivity
QVQLVESGGGLVQAGGSLRLSCAASGSIFAYYAIGWYRQAPGKEREFVAAISISGGSTNYADSVKRRFTISRDNAKNTVYLQMNSLKPEDTAVYSCAATSRWSSFGFYGQYNFWGQGTQVTVSS | high polyreactivity
QVQLVESGGGLVQAGGSLRLSCAASGSIFLSYAMGSYREAPGKERELVATITAGGGSTNYADSVKGRFTISRDNAKNTVYLQMNSLKPEDTAVYYCAAKRLSWHGYGYWGQGTQVTVSS | low polyreactivity
QVQLVESGGGLVQAGGSLRLSCAASGFTFYYYPMGWYRQAPGKERELVAAITWRGGSTNYADSVKGRFTISRDNAKNTVYLLMISLKPEDTAVYYCAAVTYWFWPGMDYWGQGTQVTVSS | low polyreactivity
QVQLVESGGGLVQAGGSLSLSCAASGRTYYYNAMGWYRQAPGKERELVAAITFSGGTTSYADSEKGRFTISRDNAKNTVYLQMNRLKPEDTEVYYCAARGYWGQGTQVTVSW | high polyreactivity
QVQLVETGGGIVQAGVSLRISCASSGRTFRWYAMGWSRQSPGKERELVAAITSGGGTYYADSVKGLFTISRDYAKNTVYLQMNRLKREDTAVYYCNKLHRDRYDYWGQGTQVTVSS | high polyreactivity
QVQLVESGGGLVQAGGSLRLSCAASGSIFYGNTMGWYRQAPGKERELVAAITWSGDSTYYADSVKGRFTISRDNAKNTVYLQMNSLKPEDTAVYYCNADQTGVYYAGEGNYWGQGTQVTVSS | low polyreactivity
QVQLVESGGGLVQAGGSLRLSCAASGNTFDFYAMGWYRQAPGKEREFVAAISNGGSTTYADSVKGRFTISRDNAKNTVYLQMNSLKPEDTAVYYCAADPRNAEYDDASMDYWGQGTQVTVSS | high polyreactivity
HVQLVESGGGLVQAGGSLRLSCAASGRIFFRYAMGWYRQAPGKERELVAAISYSGGSTYYADSVKGRFTISRDNAKNTVYLQMNSLKPEDTAVYYCAAPLLRDLRSPYSYNYWGQGTQVTVSS | low polyreactivity
QVQLVESGGGLVQAGGSLSLSCAATGRIFGPYAMGWYRQAPGKERELVATINSGGSTHYADSVKGRFTISRDNAKNTVYLQMNSLKPEDTAVYYCAATSAYGRYRYYYWGQGTQVTVSS | high polyreactivity
QVQLVESGGGLVQAGGSLRLSCAASGRTFYLNAMGWYRPAPGKDRELVATITSRAGSTRYADSVKGRFTISRDNAKNTVYLQMNSLKPEDTAVYYCAVRSTDPYRRGPSYYYWGQGTQVTVSS | high polyreactivity

Sequence | polyreactivity (PSR sort gate)
QVQLVESGGGLVQAGGSLRLSCAASGGIFYTNAMGWYRQAPGKERELVAAIRKNGDSTNYADSVKGRFTISRDNAKYTVYLHMNSLKPEDTAVYYCNDELWPWAYDYWGQGTQVTVSS | low polyreactivity
QVQLVESGGGLVQAGGSLRLSCAASGITFPKYAMGWYRQAPGKERELVAAITKSGGSTYYADSVKGRFTISRDNAKNTVYLQMNSLKPEDTAVYYCAVVSRGITKYDYWGQGTQVTVSS | high polyreactivity
QVQLLESGGGLVQAGGSLRLSCAASGITFAKYAMGWYRQAPGKEREFVAAISTSGGSTYYADSVKGRFTISRDNAKNTVYLQMNSLKPEDTAVYYSNVETYIWYFLRYYNYWGQGTQVTVSS | high polyreactivity
QVQLVESGGGLVQAGGRLRLSCAASGRTFLVNAMGWYRQAPGKERELVAAISQRGGSTDYADSVKGRFTISRDNAKNTVYLQMNSLKPEDTAVYYCAVRWGYLYDYWGQVTQVTVSS | low polyreactivity
QVQLVESGGGLVQAGGSLRLSCAASGLIFGYNAMGWYRQAPGKEREFVAGISVIDGRTYYADSVKGRFTISRDNAKNTVYLQMNSLKPEDTAVYYCAADRWYKYYFLTYGYWGQGTQVTVSS | low polyreactivity
QVQLVESGGGLVQAGGSLRLSCAASGRIFKNNTMGWYRQAPGKERELVAAISCSGGSTYYADSVKGRFTISRDNAKNTVYLQINSLKPEDTAVYYCATTYEPNGGIEDDYWGQGTQVTVSS | low polyreactivity
QVQLVESGGGLVQAGGSLRLSCSASGSIFRYYAMGWYRQPPGKEREFVASITYRGGRTYYADSVKGRFTISRDNAKKTVYLQMNSLKPEDTAVYYCAARTRAGAWTSKYHDYWGEGTQVTVSS | high polyreactivity
QVQLVESGGGLVQAGGSLRLSCAASGSTFQFYAMGWYRQAPGKERELVAAIRSSDDSTYYADSVKGRFTISRDNAKNTVYLQMNSLKPEDTAVYYCAAVQDYYGVWYDYWGQGTQVTVSS | high polyreactivity
QVQLVESGGGLVQAGGSLRLSCAASGANFGRNDMGWYRQAPGKERELVAAISWSGGRTYYADSVKGRFTISRDNAKNTVYLQMISLKPEDTAVYYCNRDYYVGRYDYWGQGTQVTVSS | high polyreactivity
QVQLVESGGGLVQAGGSLRLSCAASGRIFLYYAMGWYRQAPGKERELVAAIDSSGGNTNYADSVKGRFTISRDNAKNTVYLQMNSLKPEDTAVYYCAADFYVSADRWPNYDYWGHGTQVTVSS | low polyreactivity
QVQLVESGGGLVQAGGSLRLSFAASGGTLDVYAMGWYRQAPGKEREFVAAISWSGGRTYYADSVKGRFTISRDNAKNTVYLQMISLKPEDTAVFFCATDLYISIRYGGYYWGQGTQVTVSS | high polyreactivity
QVQLVESGGGLVQAGGSLRLSCAASRFIFWSYAMGWYIQAPGTEREMVAAIDMTGGSTYYADYVKGRFTISRDNAKNTVYLQMNSLKPEDTAVYYCNADGDTYAFTNSDSGFDYWGQGTQVTVSS | low polyreactivity
QVQLVESGGGLVQAGGSLRLSCAASGRIFLYYAMGWYRQAPGKERELVAAITSSGGDTYYADSVKGRFTISRDNAKNTVYLQMNSLKPEDTAVYYCAALGGRYRASTYGYWGQGTQVTVSS | high polyreactivity
QVQLVDSGGGLVQPGGSLRLRCAASGGIFLQNAMGWYRQAPGTERELVAAISWSAGSTYYADSVKGRFTISRDNAKNTVYLDMNCLKPEDTAVYYCAAAGSNFTVWYGYYYWGQGTQVTVSS | low polyreactivity
QVQLVESGGGLVQAGGSLRLSCAASGSIFRNYAMGWYRQAPGKERELVATIRYRGGRTYADSVKGRFTISRDNAKNTVYLQMNRLKPEDTAFYYCNTYARYAYLTGRMDYWGQGTQVTVSS | high polyreactivity
QVQLVESGGGLVQAGGSLRLSCAASGSIFNKNAMGWYRQAPGKERELVAAITSSGSSTYYADSVKGRFTISRDNAKNTVYLQMNSLKPEDTAVYYCNAQYGIRPRAGRTRQKYDYWGQGTQVTVSS | high polyreactivity
QVQLVESGGGLVQAGGSLRLSCAASGFTYYAMGWYRQAPGKERELVAAITRGGSTYYADSVKGRFTISRDNAKNTVYLQMNSLKPEDTAVYYCAVLQRAARLGYNYWGQGTQVTVSS | high polyreactivity
QDQLVESGGRLVQAVGSLRLSCAASGRIFTDYTMGWYRQAHGKERELVAAISYSGGSTYYADSVKGRFTISRDNAKNTVYLQMNSLKPEDTAVYYCNKDYYVHDGYGYWGQGTQVTVSS | low polyreactivity
QVQLVESGGGLVQAGGSLRLSCAASGSIFGGNAMGWYRQAPGKERELVAAISGSGGSTYYADSVKGRFTISRDNAKNTVYLQMNSLKPEDTAVYYCAAGIYRGRNYYYWGQGTQVTVSS | high polyreactivity
QVQLVESGGGLVQAGGSLRLSCAASGSTFRQYAMGWYRQAPGKERELVAAIRGRDGSTYYADSVKGGFTISRDNAKYTVYLQMNSLKPEDSAVYYCNVVARGVSPGYDYWGQGTQVTVSS | high polyreactivity

Source: the nanobody polyreactivity screen of Harvey et al. (2022)
